Measured values from paper PMC10119233.

What was measured:
[1] = target: N1_(10-14)Fc, Notch1 EGF-like repeats 10–14 fused to human IgG Fc (human) (UniProt P46531); assay: mass photometry; purified Notch decoys; oligomeric state
[2] = target: N4_(10-14)Fc, Notch4 EGF-like repeats 10–14 fused to human IgG Fc (human) (UniProt Q99466); assay: as above
[3] = target: Recombinant Fc-tagged hDLL4 (human) (UniProt Q9NR61); assay: SPR; Biacore T200, CM5 chip; hDLL4-Fc or hJAG1-Fc on the chip (amine coupling by the results; captured after immobilising human IgG Fc by the methods), up to 20,000 RU; N1_(10-14)Fc or N4_(10-14)Fc as analyte, multi-cycle kinetics; HBS-N (10 mM HEPES, 150 mM NaCl), 0.005% Tween 20, 1 mM CaCl2, 2 mM MgCl2, pH 7.4; 25 °C, 25 μl/min; KD = kd/ka
Sequence of Recombinant Fc-tagged hDLL4 (human) (Q9NR61 27-529): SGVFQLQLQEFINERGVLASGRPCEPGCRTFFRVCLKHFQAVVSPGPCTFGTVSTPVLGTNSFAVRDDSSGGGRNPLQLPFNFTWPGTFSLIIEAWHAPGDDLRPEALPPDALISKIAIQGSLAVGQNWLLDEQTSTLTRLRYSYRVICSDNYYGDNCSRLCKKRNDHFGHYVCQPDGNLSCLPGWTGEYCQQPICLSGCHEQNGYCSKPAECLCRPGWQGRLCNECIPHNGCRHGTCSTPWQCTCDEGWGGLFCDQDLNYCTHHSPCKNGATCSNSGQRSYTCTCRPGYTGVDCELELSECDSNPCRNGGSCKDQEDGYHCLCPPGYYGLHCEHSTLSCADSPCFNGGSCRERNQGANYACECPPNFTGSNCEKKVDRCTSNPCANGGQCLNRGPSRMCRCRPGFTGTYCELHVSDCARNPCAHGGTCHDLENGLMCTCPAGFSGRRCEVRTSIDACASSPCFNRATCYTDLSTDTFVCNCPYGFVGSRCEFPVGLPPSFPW

N1_(10-14)Fc, Notch1 EGF-like repeats 10–14 fused to human IgG Fc (from UniProt P46531 19-2555) (Fc fusion)
stoichiometry N [1]: 2

N4_(10-14)Fc, Notch4 EGF-like repeats 10–14 fused to human IgG Fc (from UniProt Q99466 24-2003) (Fc fusion)
stoichiometry N [2]: 2 | Kd [3]: 963 nM
